Source: PMC8528861, “Structural and functional analysis of target recognition by the lymphocyte adaptor protein LNK” (Nature Communications, 2021)

Assays:
[1] = biological target: M. musculus LNK SH2 domain (residues 324–446), wild type (mouse) (UniProt O09039); assay: SPR; competition: biotinylated IL6ST pY757 peptide immobilised on a streptavidin chip; 0.1–0.5 μM WT LNK SH2 domain pre-incubated with phosphopeptide and flowed over; 10 mM HEPES pH 7.4, 150 mM NaCl, 3.4 mM EDTA, 0.005% Tween 20; response normalised to LNK only, IC50 fit
[2] = biological target: biotinylated JAK2 pY813 peptide; assay: SPR; direct binding: biotinylated JAK2 pY813 immobilised on a streptavidin chip; LNK and SH2B SH2 domains flowed over for 420 s at 30 μL/min; 10 mM HEPES pH 7.4, 150 mM NaCl, 3.4 mM EDA, 0.005% Tween 20

Chain of M. musculus LNK SH2 domain (residues 324–446), wild type (mouse) (O09039 324-446): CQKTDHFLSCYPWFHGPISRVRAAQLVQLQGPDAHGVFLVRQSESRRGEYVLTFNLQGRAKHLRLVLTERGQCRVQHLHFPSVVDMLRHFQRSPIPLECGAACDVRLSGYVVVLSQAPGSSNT

Substance	IC50 [1] [nM]	other results
JAK2 pY813 peptide mutant +1A	430	–
JAK2 pY813 peptide mutant +3F	1430	–
JAK2 pY813 peptide mutant +4A	90	–
JAK2 pY813 peptide mutant +5A	300	–
JAK2 pY813 peptide mutant −1A	150	–
M. musculus LNK SH2 domain R387C (from UniProt O09039 325-438) (domain or fragment)	–	fold loss in affinity relative to the WT SH2 domain [2]: 3 fold
M. musculus LNK SH2 domain R387H (from UniProt O09039 325-438) (domain or fragment)	–	fold loss in affinity relative to the WT SH2 domain [2]: 10 fold
mouse SH2B SH2 domain (from UniProt Q91ZM2 527-625) (domain or fragment)	–	Kd [2]: 100 nM
